Patent publication US20220235140A1 (HEDGEHOG, published 2022)

Target: T1, human endothelin receptor type A (human, UniProt P25101 21-427, limits assumed)
T1 construct: Immobilized on plates coated with human Galpha-i3 such that its extracellular regions were selectively exposed; also called ETA
T1 sequence (looked up): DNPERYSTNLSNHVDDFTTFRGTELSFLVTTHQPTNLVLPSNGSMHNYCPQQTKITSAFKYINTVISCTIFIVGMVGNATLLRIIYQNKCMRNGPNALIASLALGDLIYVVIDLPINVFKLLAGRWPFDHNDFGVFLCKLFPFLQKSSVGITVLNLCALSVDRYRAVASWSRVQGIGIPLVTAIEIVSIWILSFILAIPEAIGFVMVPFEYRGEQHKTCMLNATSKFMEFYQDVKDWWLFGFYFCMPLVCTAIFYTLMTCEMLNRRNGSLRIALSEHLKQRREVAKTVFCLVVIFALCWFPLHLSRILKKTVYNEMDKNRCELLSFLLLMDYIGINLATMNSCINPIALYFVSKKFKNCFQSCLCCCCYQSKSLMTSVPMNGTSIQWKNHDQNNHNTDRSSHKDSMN
Assay: ELISA, ETA immobilized via human Galpha-i3, antibody titrated

- Kd: 0.0261 µM
B1: AG8 (antibody, V domains shown)
VH: EVQLVESGAEVRKPGASVKVSCKASGYTFTSSDINWIRQATGQGLEWMGYMNPKNGNTDYAQKFQGRISMTRDSSISTAYMELSSLRSEDTAVYYCAKDRYGSGTYGFGMDVWGPGTLVT
VL: DIVMTQSPSAMSASVGDRVSITCRASQGINNYLAWFQQKPGKVPKRLMDVGSILQSGIPSRFRGRGSGTQFTLTISSLQAEDSGTYFCLQHNTYPLTFGPGTKVEIKR
